Source: PMC7587441, “Plasmodium falciparum Apicomplexan-Specific Glucosamine-6-Phosphate N-Acetyltransferase Is Key for Amino Sugar Metabolism and Asexual Blood Stage Development” (mBio, 2020)

Biological target: Cryptosporidium parvum glucosamine-6-phosphate N-acetyltransferase (CpGNA1) (Cryptosporidium parvum)
Experiment: crystal structure; CpGNA1 (1.5 mg/ml) cocrystallised with 10 mM acetyl-CoA, soaked with 50 mM acetyl-CoA and 50 mM Glc6P; space group P2(1)2(1)2(1), two monomers in the asymmetric unit; 1.95 Å

Cryptosporidium parvum glucosamine-6-phosphate N-acetyltransferase (CpGNA1) (enzyme)
stoichiometry N: 2
